Data on two molecules can be found in patent CN114560934A.

The target of the assay is β-银环蛇毒素 (银环蛇) (UniProt P00617).

B1: β-BGT单克隆抗体株2B10E7 (antibody)
VH: LTMDFGLSWVFLVLTLKGVKCEVQLVESGGGLVKPGGSLKLSCAASGFAFSTSDISWVRQTPEKRLEWVTYISNGAGNTYNPDTDKGTFTISRDNAKNTLYVQMSSLKSEDTAMYYCARHNASSLQFAYWGQGTLVTVSAVKTTPPSVYPLAPVCGD
VL: DIVLTQSPASLAVSLGQRATISYRDSKSVSRSGYSYMHWNQQKPGQPPRLLIYLVSYLESGVPARFSGSGSGTDFTLNIHPVEEEDAATYYCQHTRELTRSEGGPSWKLNGLMLHQLYP
B1 returned a 检测限 of 20 ng/mL.

B2: β-BGT单克隆抗体株3B10B7 (antibody)
VH: LTMNFGLSWVFLVLTLKGVKCVVQLLESGRGLVKPGGSLKLSCAASGFAFSTYDTSWVRQTPEKRLEWVTYTSRGAGNTYYPDTVKGRFTISRDNAKNTLYVQMSSLKSEDTAMYYCARQSAWSLPIDYWGQGTLVTVSAAKTTPPSVYPLAPVCGG
VL: DIVMTQTPASLAVSLGQRATISYRTSKRVTTSGYSYMHWNQQKPGQPPRLLIYLASILESGVPARFSGSGSGTDFTLNIHPVEEEDAATYYCQHISELIRSEGGPSWKSNGLMLHQLYP
B2 showed a 检测限 of 20 ng/mL.
